According to patent US20230287087A1 (MAX PLANCK GESELLSCHAFT ZUR F RDERUNG DER WISSENSCHAFTEN E V, published 2023):

Tests used:
[1] = molecular target: Spike protein of patient-derived SARS-CoV-2 (D614G) (SARS-CoV-2, UniProt P0DTC2 14-1273); assay: cell-based or functional assay
[2] = molecular target: T1, SARS-CoV-2 spike receptor-binding domain (RBD), wild type (SARS-CoV-2, UniProt P0DTC2 319-541); assay: BLI, biotinylated VHH on streptavidin sensor, RBD in solution
[3] = molecular target: B.1.617.2/Delta RBD (40592-V08H90, Sino Biologicals) (SARS-CoV-2, UniProt P0DTC2 319-541); assay: as above
[4] = molecular target: T1, SARS-CoV-2 spike receptor-binding …; assay: method not stated
[5] = molecular target: Californian RBD mutant (L452R) (SARS-CoV-2, UniProt P0DTC2 319-541); assay: BLI
[6] = molecular target: Brazilian RBD mutant (K417T, E484K, N501Y) (SARS-CoV-2, UniProt P0DTC2 319-541); assay: BLI
[7] = molecular target: South African RBD mutant (K417N, E484K, N501Y) (SARS-CoV-2, UniProt P0DTC2 319-541); assay: BLI

B1: Re6H06 (VHH)
VHH: QVQLVESGGGLVQPGGSLRLSCAASGVTLDYYAIGWFRQAPGKEREGVSCTSSSDGSTYYADSVKGRFTISRDNAKNTVYLQMNSLKPEDTGVYYCAVVPQTYYGGKYYSQCTANGMDYWGKGTLVTVSS
B1 was tested, and the “Lowest SARS-COV-2-neutralizing concentration” value [1] was 50 pM, the Kd [2] was no more than 0.01 nM and the Kd [3] was no more than 0.01 nM. For the same binder, the Kd [4] was no more than 0.001 nM, the Kd [5] was 0.05 nM and the Kd [6] was no more than 0.01 nM. For the same binder, the Kd [7] was no more than 0.01 nM.
